What was measured:
[1] = target: 人源PGI蛋白 (human pepsinogen I from human gastric mucosa, Lee Biosolutions, cat. 440-50) (human) (UniProt P0DJD8); test: indirect ELISA, human-derived PGI coated at 2 ug/mL, culture supernatant diluted 50-fold
[2] = target: T1, 重组PGI蛋白 (recombinant pepsinogen I protein, expressed in HEK293 cells) (Homo sapiens (Human), UniProt P0DJD9 16-388, limits assumed); test: indirect ELISA screen of hybridoma supernatants on coated recombinant PGI
T1 construct: Immunogen and ELISA coating antigen; also called PGI重组蛋白; 重组蛋白
T1 sequence (P0DJD9 other isoform, or with tags, fused parts or gaps limits assumed): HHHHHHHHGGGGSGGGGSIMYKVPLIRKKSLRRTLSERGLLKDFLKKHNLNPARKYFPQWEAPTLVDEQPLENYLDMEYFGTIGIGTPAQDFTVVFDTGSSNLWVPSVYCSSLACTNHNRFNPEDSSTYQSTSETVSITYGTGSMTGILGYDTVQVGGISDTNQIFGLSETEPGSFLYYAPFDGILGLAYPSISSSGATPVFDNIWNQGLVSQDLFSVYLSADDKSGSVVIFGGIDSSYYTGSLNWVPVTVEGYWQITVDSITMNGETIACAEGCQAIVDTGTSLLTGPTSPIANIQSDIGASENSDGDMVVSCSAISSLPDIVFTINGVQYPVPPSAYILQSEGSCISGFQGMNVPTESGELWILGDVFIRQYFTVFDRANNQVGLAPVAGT

Chain of UniProt P0DJD8 (P0DJD8 16-388): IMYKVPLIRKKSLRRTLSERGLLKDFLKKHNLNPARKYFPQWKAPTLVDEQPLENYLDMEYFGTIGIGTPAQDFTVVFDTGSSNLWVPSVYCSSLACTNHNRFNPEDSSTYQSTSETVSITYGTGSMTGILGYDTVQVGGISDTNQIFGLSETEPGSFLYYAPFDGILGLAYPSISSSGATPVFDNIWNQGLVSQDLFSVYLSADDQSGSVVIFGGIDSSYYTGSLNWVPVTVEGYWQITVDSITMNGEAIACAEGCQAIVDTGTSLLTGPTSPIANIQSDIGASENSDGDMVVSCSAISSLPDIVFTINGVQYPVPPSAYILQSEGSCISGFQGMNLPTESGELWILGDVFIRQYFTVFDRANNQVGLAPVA

| OD450 [1] [OD450] | binding result [2] | Binder |
| --- | --- | --- |
| 2.04 |  | 鼠单克隆抗体36A2 (antibody, V domains shown) VH: EIQLQQSGPELVKPGASVKVSCKASGYSFTDYNIYWVKQGHGESLEWIGYIDPYNGDTDYNQKFKDRSTLTVDKSSNTAFMHLNSLTSEDSAVYYCARSRNYYGSSFAYWGQGTLVTVSA VL: DVLMTQTPLSLPVSLGDQASISCRSSQAIVHGNGNTYLEWSLQKPVHSPKLLIFKVSNRFSGVPDRFSGSGSGTDFTLKISRVEAEDLGVYYCFQGSHVPPTFGGGTKLEIK |
| 1.87 | binds | 鼠单克隆抗体3D9 (antibody, V domains shown, Mouse monoclonal antibody from a hybridoma; also called 第一单抗) VH: QVQLQQSGAELAKPGAAVKMSCKASGYTFTSHWMHWVNQRPGQGLEWIGYINPTTGYSEYNQKFKDKATMTADKSSSTAYMHLRSLTSEDSAVYYCARGAYYYGSSRFDYWGQGTTLTVSS VL: DVLMTQTPLSLPVSLGDQASISCRSSQTIVHTNGNTYLEWYLQKPGQSPKLLIYKVSNRFSGVPDRFSGSGSGTDFTLKISRVEAEDLGVYYCFQGSHVPWTFGGGTKLEIK |

Source: patent CN114835815A (NINGBO SAIPO BIOTECHNOLOGY CO LTD, dated 2022)
